# Data published in patent publication US20020107174A1, “COMPOSITION COMPRISING ENDOTOXIN NEUTRALIZING PROTEIN AND DERIVATIVES AND USES THEREOF” (priority 1998, published 2002).
# B1: Limulus ENP: the 11.8 kDa ENP from the horseshoe crab Limulus polyphemus; residues 5 to 105 of SEQ ID NO:2 or SEQ ID NO:5 (protein, listed as Limulus polyphemus)
# chain: DGIWTQLIFTLVNNLATLWQSGDFQFLDHECHYRIKPTFRRLKWKYKGKFWCPSWTSITGRATKSSRSGAVEHSVRNFVGQAKSSGLITQRQAEQFISQYN
# B2: ENP: protein found in horseshoe crab amebocyte lysates that binds and neutralizes the biological activity of endotoxins (protein, listed as Limulus polyphemus)
# chain: B1 chain
# Legend:
# [1] = tested on: Propionibacterium acnes, ATCC No. 11827; assay: Zone inhibition assay; assay type: cell-based; conditions: 4 mm disc treated with 10 μl (Limulus ENP 1 mg/ml; benzoyl peroxide 0.05%), overnight at 37° C.
# Description: The inhibitory effect of a recombinant Limulus ENP (i.e., that expressed from the fusion protein II construct discussed above) was tested against Propionibacterium acnes, the bacterium that causes acne, using a zone inhibition assay. Petri dishes were filled with sterile nutrient agar following standard microbiological procedures. The nutrient agar-filled dishes were allowed to cool and harden before being inoculated with test bacteria. Using a sterile swab, the surface of the petri dishes were inoculated with a culture of Propionibacterium acnes, ATCC No. 11827, that had grown overnight at 37° C.
# Sterile filter paper discs (4 mm, Whatman) were treated with 10 μl of aqueous solutions of (1) recombinant Limulus ENP at a concentration of 1 mg/ml (the test sample); (2) benzoyl peroxide at a concentration of 0.05% (the positive control); or (3) sterile saline (the negative control). Benzoyl peroxide serves as a positive control because it is known to inhibit the growth of Propionibncterium acnes.
# The treated filter paper discs were placed on the inoculated plates and the plates incubated overnight at 37° C. The Limulus ENP disc produced a zone of inhibition having a diameter of 4-5 mm. The benzoyl peroxide disc produced a zone of inhibition having a diameter of 10-11 mm. The negative control disc produced no zone of inhibition.
# [2] = tested on: Bortadella sp.; assay: Growth inhibition of Bortadella sp., optical density; conditions: GMS alone
# Description: An LAL 5000 spectrophotometer (Associates of Cape Cod) was used to monitor optical density changes over time when bacteria were grown in sterilized Luria broth (LB). The LAL 5000 can accommodate up to 32 individual 10×75 mm glass test tubes in its circular array. Automated temperature control was maintained at 37° C. for these experiments. LB was placed into sterile, oven depyrogenated glass test tubes. […] Other gram-negative (E. coli strains Rosenbergii sp., K12, X10, HB101, Shewanella sp., Bortadella sp.) and gram-positive bacteria (e.g., S. aureus, and Bacillus spp.) were grown in this manner and changes in optical density were monitored over time. The optical density data was collected, stored and analyzed by computer which was interfaced with the LAL 5000.
# The tubes were then inoculated with cells from a log phase culture of Bortadella sp. Optical density of each tube was monitored via method described above.
# [3] = tested on: E. coli strain 25303; assay: Growth inhibition of E. coli in Luria broth, optical density (LAL 5000); assay type: cell-based
# Description: E. coli cells were cultured overnight at 37° C. in LB. Aliquots were diluted 1:100 in fresh LB (control). LB plus PMB was serially diluted from 0.25 μg/ml to 0.001 μg/ml. LB plus Limulus ENP was formulated at concentrations from 20 to 0.07,μg/ml. Optical density of the cell culture was recorded at 410 nm during the course of the experiment.
# The tubes were then inoculated with cells of a log phase E. coli culture.
# TET was serially diluted with LB in ten-fold increments from 10 μg/ml to 0.0001 μg/ml.
# E. coli cells were cultured overnight at 37° C. in LB. Aliquots of the culture were diluted 1:100 in fresh LB as controls. Test samples consisted of cells in: LB plus AMP at 2.5 μg/ml; LB plus Limulus ENP at 25 and 5 μg/ml; and combination of 2.5 μg/ml AMP and either 2.5 or 5.0 μg/ml Limulus ENP. Optical density of the cell samples was recorded at 410 nm during the course of the experiment.
# [4] = tested on: E. coli endotoxins; conditions: rabbits, cited from earlier work
# [5] = tested on: meningococcal endotoxins; conditions: rabbits, cited from earlier work
# [6] = tested on: E. coli cultures; assay: Endotoxin levels in antibiotic-inhibited cultures, Limulus amebocyte lysate (LAL) assay; assay type: cell-based
# Description: Antibiotic-inhibited gram-negative bacteria release endotoxins into the medium. […] E. coli cultures treated with antibiotic alone or in combination with Limulus ENP were prepared and incubated as described in Sections 6.3.1 and 6.3.2, above. The endotoxin levels present in the cultures were measured using the standard Limulus amebocyte lysate (LAL) assay.
# [7] = tested on: uncharacterized gram-positive bacterium isolated from marine organisms; assay: Growth inhibition of gram-positive bacterium from marine organisms, optical density at 410 nm; assay type: cell-based; conditions: Limulus ENP at 2.5 or 5 μg/ml
# Description: An uncharacterized gram-positive bacterium isolated from marine organisms was cultured overnight at 37° C. in LB. Aliquots of the culture were diluted 1:100 in fresh LB as controls. Test samples consisted of cells in LB plus LimulusENP at 2.5 or 5.0 μg/ml. The control and Limulus ENP-treated cultures were incubated at 37° C. Optical density of the cultures was recorded at 410 nm during the course of the experiment to monitor the growth of the gram-positive bacterium.
# [8] = tested on: endotoxins; assay: Biological activity of recombinant Limulus ENP from S. cerevisiae; conditions: from pCGS965-transformed S. cerevisiae
# Source text: In one yeast expression system, an expression construct encoding the aforementioned fusion protein I was inserted into an autonomous replicating plasmid yielding pCGS965 (FIG. 9). This plasmid, in turn, was used to transform S. cerevisiae strain 2470. pCGS965 carries the gene for uracil production, which complements the host strain's auxotrophy for this base. Recombinant Limulus ENP has been expressed, purified, and characterized from pCGS965-transformed cells grown at the 500 liter scale. Fusion protein I was expressed and correctly processed, and the Limulus ENP secreted into the medium. The recombinantly produced Limulus ENP has biological activity identical to that of ENP isolated from Limulus amebocytes.
# [9] = tested on: Pool 4 (Yeast): Candida parapilosis, C. albicans; assay: Preservative challenge of oil in water emulsion, plate count, Pool 4; assay type: cell-based; conditions: 0.01% (weight/volume) in emulsion, eight week period
# Description: (§1) The cell numbers of the pools were quantitated by serial dilution. That is, the number of viable cells was determined by taking an aliquot from the sample, diluting it and culturing it so that colonies arising from individual cells could be counted.
# (§2) An oil in water emulsion was prepared comprising the following ingredients:
# (§3) To test its antimicrobial activity, Limulus ENP was added to the emulsion to achieve a concentration of about 0.01 weight percent, with appropriate adjustment of distilled water. Control and Limulus ENP-containing emulsions were inoculated with 10^8 viable cells from each of the five microorganism pools. The number of viable microbial cells was determined by plate count at the time of the initial inoculating, and at weekly intervals up to 8 weeks. After obtaining an aliquot for cell count at Week 3, microbes were re-inoculated to initial levels. The weekly cell counts are shown in Table 5 as logs of the cell number.
# [10] = tested on: Pool 5 (Fungi): Aspergillus niger; assay: Preservative challenge of oil in water emulsion, plate count, Pool 5; assay type: cell-based; conditions: 0.01% (weight/volume) in emulsion, eight week period
# Description: as §1, §2, §3
# [11] = tested on: rough gram-negative bacteria; conditions: cited from earlier work
# [12] = tested on: human macrophages; conditions: cited from earlier work
# [13] = tested on: Escherichia coli endotoxin; conditions: rats; cited from earlier work
# [14] = tested on: endotoxins or lipid A from gram-negative bacteria; conditions: ENP added in excess; cited from earlier work
# [15] = tested on: encapsulated strain of E. coli; conditions: rats, cited from earlier work
# [16] = tested on: E. coli; conditions: rabbits; cited from earlier work
# [17] = tested on: human endothelial cells; conditions: cited from earlier work
# [18] = tested on: murine splenocytes; conditions: cited from earlier work
# [19] = compared with anti-endotoxin antibody HA-1A
molecule,measurement,setting,value
"O=C(OOC(=O)c1ccccc1)c1ccccc1 [benzoyl peroxide, reference compound]","zone of inhibition, diameter",[1],10-11 mm
gentamycin sulfate [GMS],lowest effective concentration which almost totally inhibited the growth of Bortadella sp.,[2],10 µg/mL
same,effective concentration which substantially inhibits the growth of E. coli,"[3]; GMS alone, Luria broth",0.5 µg/mL
"polymixin B [PMB, reference compound]",shock and mortality,"[4]; pretreatment with PMB, potent dose of E. coli endotoxins",effective in preventing shock and mortality
same,physiologic functions or mortality,[5]; pretreatment with PMB alone,failed to improve
same,ENDOTOXIN LEVEL,[6]; E. coli cultures inhibited by PMB at 5 μg/ml,3.8 µg/mL
same,inhibition of growth of E. coli,[3]; 0.06 μg/ml PMB alone,approximately 20%
same,lowest effective concentration which totally inhibited the growth of E. coli,"[3]; PMB alone, Luria broth",5 µg/mL
B1,growth of the gram-positive bacterium,[7],effectively inhibited
same,"zone of inhibition, diameter",[1],4-5 mm
same,"effect of serum proteins on biological activity, antimicrobial properties and endotoxin binding activity",[6]; serum-containing media,did not adversely affect
same,biological activity compared with ENP isolated from Limulus amebocytes,[8],identical
same,killing and re-growth of the yeasts Candida parapilosis and Candida albicans,[9],effective at killing and preventing the re-growth
same,effect on the fungus Aspergiltus niger,[10],limited fungal growth
B2,physiological functions and survival rate,[4]; 2.5 or 5 mg/kg before lethal endotoxin challenges,significantly improved
same,survival rates,[4]; administered 30 min. after endotoxin challenge,improved survival rates
same,physiological functions and survival rate,[5]; administered 30 minutes after meningococcal endotoxin challenges,significantly improved
same,protection against lethal meningococcal challenge,[5],protective
same,growth of rough gram-negative bacteria,[11],inhibits the growth
same,endotoxin induction of release of tumor necrosis factor by human macrophages,[12],inhibit
same,protection against lethal Escherichia coli endotoxin challenge,[13],protective
same,endotoxin activity in the mixture,[14],greatly reduced
same,circulating endotoxin concentrations,[15]; [19],significantly lower
same,survival rates,[15]; [19],improved survival rates
same,lethal effect of endotoxins released by the infecting E. coli,"[15]; dose of 50 mg/kg, also when administered after endotoxin had circulated",blocked the lethal effect
same,survival rate with E. coli sepsis,[15],improve the survival rate
same,survival rate with E. coli sepsis,[16],improve the survival rate
same,endotoxin induction of activation of human endothelial cells,[17],inhibit
same,endotoxin induction of mitogenesis of murine splenocytes,[18],inhibit
